From the Human Domainome abundance scans (Beltran et al. 2025)
± gives the uncertainty stated by the source.

B1: Segment polarity protein dishevelled homolog DVL-3, residues 2 to 81; numbered along this chain, Q92997 (parent)
chain: GETKIIYHLDGQETPYLVKLPLPAERVTLADFKGVLQRPSYKFFFKSMDDDFGVVKEEISDDNAKLPCFNGRVVSWLVSA

Variants of: B1
Assay: abundance fitness (aPCA) (normalised: wild type 0, dead -1); higher = more abundant; growth selection in yeast, the domain comes from the species named
Conditions: Homo sapiens

Abundance fitness: each site, then its substitutions
L29: W -0.783 ± 0.12; S -0.498 ± 0.078; D -0.97 ± 0.21; A -0.639 ± 0.089; K -0.917 ± 0.14; G -0.643 ± 0.065; E -0.782 ± 0.11; H -0.433 ± 0.14; N -0.865 ± 0.22; Q -0.91 ± 0.15; I -0.675 ± 0.19; Y -0.321 ± 0.16; C -0.287 ± 0.12; T -0.608 ± 0.098; M -0.71 ± 0.15
E25: C -0.035 ± 0.083; G -0.096 ± 0.048; I -0.658 ± 0.25; Y -0.501 ± 0.14; H -0.022 ± 0.098; T -0.356 ± 0.12; N -0.006 ± 0.095; Q -0.389 ± 0.1; S -0.115 ± 0.064; V -0.807 ± 0.12; W -0.457 ± 0.095; L -0.825 ± 0.12; R -0.59 ± 0.072; A -0.252 ± 0.07; M -0.335 ± 0.22; P -0.965 ± 0.19; F -0.913 ± 0.22; K -0.474 ± 0.11
E13: G -0.348 ± 0.075; H -0.473 ± 0.1; C -0.251 ± 0.081; K 0.064 ± 0.082; Y -0.526 ± 0.1; T -0.129 ± 0.076; D -0.129 ± 0.082; A -0.183 ± 0.068; F -0.549 ± 0.099; R -0.092 ± 0.053; I -0.184 ± 0.083; N -0.222 ± 0.08; P -0.011 ± 0.065; L -0.42 ± 0.072; V -0.426 ± 0.082; Q -0.034 ± 0.091; W -0.351 ± 0.11; M -0.047 ± 0.085; S -0.107 ± 0.053
L20: C -0.632 ± 0.13; G -0.625 ± 0.059; F -0.336 ± 0.16; R -0.779 ± 0.077; V 0.104 ± 0.043; E -0.615 ± 0.092; Q -1.09 ± 0.24; K -0.666 ± 0.13; W -0.472 ± 0.069; T -0.836 ± 0.17; D -0.68 ± 0.14; P -0.954 ± 0.18; M -0.679 ± 0.13; A -1.06 ± 0.14; I 0.101 ± 0.089; S -0.664 ± 0.094
G11: W -0.466 ± 0.086; Q -0.322 ± 0.099; R -0.435 ± 0.059; Y -0.391 ± 0.14; S -0.262 ± 0.061; T -0.418 ± 0.091; V -0.919 ± 0.096
P15: S -0.078 ± 0.058; Y -0.743 ± 0.21; L -0.654 ± 0.092; N -0.529 ± 0.17; I -0.863 ± 0.22; F -0.891 ± 0.48; H -0.348 ± 0.18; G -0.47 ± 0.054; C -0.33 ± 0.14; R -0.406 ± 0.052; D -0.464 ± 0.11; T -0.058 ± 0.065; E 0.136 ± 0.052; Q -0.064 ± 0.077; A -0.142 ± 0.055
L17: A -0.098 ± 0.057; F 0.328 ± 0.068; T 0.479 ± 0.049; C 0.347 ± 0.068; P -0.907 ± 0.15; I 0.447 ± 0.084; Y 0.258 ± 0.086; N -0.482 ± 0.16; H 0.335 ± 0.091; W 0.022 ± 0.055; E 0.75 ± 0.046; Q 0.271 ± 0.057; G -0.434 ± 0.061; D -0.677 ± 0.2; S 0.245 ± 0.047; R -0.337 ± 0.054; K -0.367 ± 0.093; M 0.428 ± 0.061
R26: P -0.675 ± 0.11; L -0.081 ± 0.05; W -0.78 ± 0.11; I -0.34 ± 0.14; C -0.102 ± 0.09; Q 0.123 ± 0.056; M -0.276 ± 0.088; H -0.182 ± 0.12; Y -0.414 ± 0.13; D -0.027 ± 0.091; E 0.086 ± 0.054; S -0.068 ± 0.055; A 0.027 ± 0.053; G -0.441 ± 0.057; V -0.08 ± 0.057; K 0.039 ± 0.066; T -0.188 ± 0.079
A24: T -0.51 ± 0.11; P 0.17 ± 0.062; Q -0.074 ± 0.084; V -0.42 ± 0.074; M -0.546 ± 0.15; K -0.174 ± 0.1; F -0.549 ± 0.15; S -0.03 ± 0.056; H -0.505 ± 0.17; Y -0.325 ± 0.15; I -0.431 ± 0.18; C -0.107 ± 0.088; E -0.415 ± 0.087; W -0.235 ± 0.08; G -0.168 ± 0.048; D -0.54 ± 0.15; R -0.492 ± 0.062; L -0.356 ± 0.063; N -0.415 ± 0.15
A30: M -0.479 ± 0.1; C -0.696 ± 0.15; E -0.831 ± 0.14; F -0.858 ± 0.21; H -0.692 ± 0.19; N -0.433 ± 0.19; L -0.562 ± 0.08; K 0.007 ± 0.066; G -0.045 ± 0.046; I -0.82 ± 0.21; D -0.967 ± 0.2
T14: R 0.096 ± 0.048; P -0.129 ± 0.079; N -0.049 ± 0.071; D 0.038 ± 0.074; Y -0.955 ± 0.2; E 0.215 ± 0.059; H 0.281 ± 0.12; Q 0.114 ± 0.064; V -0.128 ± 0.059; W -0.529 ± 0.11; S -0.104 ± 0.059; M -0.265 ± 0.086; A -0.123 ± 0.063; F -0.092 ± 0.085; I 0.024 ± 0.073; K 0.286 ± 0.052; L -0.328 ± 0.061; G -0.296 ± 0.065; C -0.112 ± 0.086
P21: R -0.575 ± 0.066; Q -0.269 ± 0.084; S -0.313 ± 0.069; F -0.588 ± 0.18; Y -0.693 ± 0.2; H -0.196 ± 0.1; V -0.789 ± 0.087; L -0.758 ± 0.088; K -0.449 ± 0.092; T -0.592 ± 0.1; N 0.003 ± 0.091; A -0.169 ± 0.057; W -0.712 ± 0.11; G -0.56 ± 0.066; C -0.391 ± 0.094; I -0.561 ± 0.17; M -0.426 ± 0.091; D -0.253 ± 0.096; E -0.293 ± 0.074
Q12: Y -0.019 ± 0.08; E 0.219 ± 0.08; H 0.134 ± 0.075; S 0.263 ± 0.052; A -0.129 ± 0.068; C 0.126 ± 0.064; V -0.012 ± 0.064; M 0.063 ± 0.088; F -0.227 ± 0.1; G 0.129 ± 0.057; I 0.083 ± 0.078; L -0.305 ± 0.072; P -0.638 ± 0.18; R -0.053 ± 0.06; W -0.612 ± 0.14; K -0.088 ± 0.11; D 0.386 ± 0.069; N 0.269 ± 0.067; T -0.106 ± 0.075
L22: N -0.923 ± 0.24; D -0.574 ± 0.12; A -0.604 ± 0.085; Q -0.429 ± 0.1; R -0.656 ± 0.071; M -0.017 ± 0.073; P -0.645 ± 0.12; G -0.856 ± 0.083; W -0.578 ± 0.084; S -0.822 ± 0.1; E -0.617 ± 0.12; T -0.598 ± 0.11; H -0.617 ± 0.17; K -0.019 ± 0.068; F -0.502 ± 0.17; C -0.231 ± 0.1; V 0.059 ± 0.047
Y16: D -0.708 ± 0.17; N -0.157 ± 0.11; F -0.082 ± 0.097; V -0.115 ± 0.055; M 0.096 ± 0.062; L 0.025 ± 0.049; A -0.593 ± 0.086; T -0.15 ± 0.07; I 0.216 ± 0.092; H 0.23 ± 0.082; E -0.167 ± 0.065; W -0.572 ± 0.12; K 0.074 ± 0.066; Q 0.16 ± 0.062; C 0.041 ± 0.073; P -0.869 ± 0.15; S -0.213 ± 0.062
V27: F -0.154 ± 0.12; C -0.119 ± 0.079; E -0.624 ± 0.099; A -0.478 ± 0.079; W -0.929 ± 0.14; P -0.656 ± 0.14; Q -0.831 ± 0.18; Y -0.651 ± 0.23; T -0.762 ± 0.16; G -0.675 ± 0.063; K -0.469 ± 0.11; D -0.987 ± 0.24; R -0.875 ± 0.087; I 0.003 ± 0.1; N -0.785 ± 0.24; S -0.675 ± 0.1; H -0.664 ± 0.19
T28: M -0.604 ± 0.11; C -0.793 ± 0.16; K -0.52 ± 0.1; P -0.555 ± 0.1; I -0.578 ± 0.15; H -0.411 ± 0.14; W -0.851 ± 0.12; N -0.715 ± 0.15; Q -0.811 ± 0.13; G -0.597 ± 0.064; E -0.985 ± 0.14; D -0.401 ± 0.14; S -0.757 ± 0.099; R -0.379 ± 0.053; F -0.321 ± 0.16; V -0.574 ± 0.073; L -0.73 ± 0.091
K19: S 0.157 ± 0.05; Y -0.154 ± 0.11; N -0.133 ± 0.097; V 0.383 ± 0.043; D -0.547 ± 0.15; Q -0.297 ± 0.084; H -0.07 ± 0.1; G -0.635 ± 0.069; A -0.143 ± 0.059; C -0.024 ± 0.073; M 0.058 ± 0.066; E -0.034 ± 0.062; I 0.314 ± 0.073; F -0.215 ± 0.12; T 0.271 ± 0.054; P -0.797 ± 0.13; W -0.357 ± 0.073; R -0.132 ± 0.046
P23: G -0.73 ± 0.082; V -0.739 ± 0.1; M -0.972 ± 0.2; R -0.625 ± 0.069; E -0.383 ± 0.085; Y -0.517 ± 0.21; D -0.469 ± 0.13; Q -0.731 ± 0.13; C -0.79 ± 0.18; I -0.112 ± 0.14; N -0.833 ± 0.23; W -0.863 ± 0.14; K -0.671 ± 0.12; A -0.395 ± 0.089; F -0.405 ± 0.14; L -0.682 ± 0.1; T -0.862 ± 0.14; H -0.55 ± 0.18
V18: A -0.264 ± 0.059; R -0.717 ± 0.07; Q -0.872 ± 0.15; E -0.68 ± 0.088; C -0.558 ± 0.11; N -0.329 ± 0.12; I -0.025 ± 0.078; F -0.707 ± 0.19; M -0.247 ± 0.083; T -0.33 ± 0.079; W -0.643 ± 0.095; S -0.906 ± 0.11; Y -0.589 ± 0.14; L -0.054 ± 0.049; H -0.298 ± 0.12; K -0.601 ± 0.13; G -0.612 ± 0.059; D -0.694 ± 0.15
